Assay [1] deals with T1, CD40 (human, UniProt P25942 21-193).
T1 construct: Whole on GS-H2-huCD40 reporter cells in the reporter assays
Put plainly: FCM or ELISA, graded. (In general: ELISA stands for enzyme-linked immunosorbent assay.)

Assay [2] has as its target T2, CD19 (human, UniProt P15391 20-556).
T2 construct: whole, on cells
T2 sequence (looked up): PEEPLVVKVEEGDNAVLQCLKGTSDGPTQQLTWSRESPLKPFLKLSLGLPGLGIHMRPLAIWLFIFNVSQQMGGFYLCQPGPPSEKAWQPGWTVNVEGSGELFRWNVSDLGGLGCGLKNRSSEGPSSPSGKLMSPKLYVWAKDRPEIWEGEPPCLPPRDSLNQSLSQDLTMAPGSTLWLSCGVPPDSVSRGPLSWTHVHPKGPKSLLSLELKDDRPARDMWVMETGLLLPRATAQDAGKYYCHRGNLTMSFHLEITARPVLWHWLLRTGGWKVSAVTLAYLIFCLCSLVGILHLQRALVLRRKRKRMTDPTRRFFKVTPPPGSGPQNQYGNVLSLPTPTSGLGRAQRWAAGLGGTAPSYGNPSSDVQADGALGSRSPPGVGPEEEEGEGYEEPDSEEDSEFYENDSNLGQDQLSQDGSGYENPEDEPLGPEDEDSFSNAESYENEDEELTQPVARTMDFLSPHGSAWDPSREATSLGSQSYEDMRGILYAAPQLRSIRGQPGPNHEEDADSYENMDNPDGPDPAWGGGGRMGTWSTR
The assay can be described thus: CHO cells overexpressing CD19, graded.

Assay [3] deals with T3, CD137 (human, UniProt Q07011 24-186).
T3 construct: Whole on GS-H2-huCD137 reporter cells in the reporter assays; also called 4-1BB
Put plainly: FCM or ELISA, graded.

T1 sequence (P25942 21-193 limits assumed): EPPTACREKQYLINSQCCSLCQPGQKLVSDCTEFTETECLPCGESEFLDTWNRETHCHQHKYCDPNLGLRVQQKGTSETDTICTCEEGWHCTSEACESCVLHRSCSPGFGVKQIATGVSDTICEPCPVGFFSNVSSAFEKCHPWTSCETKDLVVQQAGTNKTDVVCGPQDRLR

B1: Ly2453 (multi-specific antibody)
chain 1: not shown
chain 2: QVQLVQSGAEVKKPGASVKVSCKASGYTFTDFWMSWVRQAPGQGLEWMGQIYPNTGTTHSNEKFKGRVTMTRDTSTSTVYMELSSLRSEDTAVYYCARSYHISTTPNWFAYWGQGTLVTVSSASTKGPSVFPLAPSSKSTSGGTAALGCLVKDYFPEPVTVSWNSGALTSGVHTFPAVLQSSGLYSLSSVVTVPSSSLGTQTYICNVNHKPSNTKVDKKVEPKSCGGGGSGGGGSGGGGSGGGGSDIQMTQSPSSVSASVGDRVTITCRASQGIYSWLAWYQQKPGKAPNLLIYTASTLQSGVPSRFSGSGSGTDFTLTISSLQPEDFATYYCQQANIFPLTFGGGTKVEIKGGGGSDKTHTCPPCPAPEAAGPSVFLFPPKPKDTLMISRTPEVTCVVVDVSHEDPEVKFNWYVDGVEVHNAKTKPREEQYNSTYRVVSVLTVLHQDWLNGKEYKCKVSNKALPAPIEKTISKAKGQPREPQVYTLPPSREEMTKNQVSLSCAVKGFYPSDIAVEWESNGQPENNYKTTPPVLDSDGSFFLVSKLTVDKSRWQQGNVFSCSVMHEALHNRFTQKSLSLSPG
chain 3: DIQMTQSPSSLSASVGDRVTITCKASQNVYKKLEWYQQKPGKVPKVLIYHTNILQTGVPSRFSGSGSGTDYTLTISSLQPEDVATYYCYQWNSGPTFGGGTKVEIKRTVAAPSVFIFPPSDEQLKSGTASVVCLLNNFYPREAKVQWKVDNALQSGNSQESVTEQDSKDSTYSLSSTLTLSKADYEKHKVYACEVTHQGLSSPVTKSFNRGEC
notes: PD-L1/CD40
Consider B1, for which the binding result in assay [1] is recorded as “binds”.

B2: Ly2454 (multi-specific antibody, human IgG1, kappa)
chain 1: not shown
chain 2: QVQLVQSGAEVKKPGASVKVSCKASGYTFTDFWMSWVRQAPGQGLEWMGQIYPNTGTTHSNEKFKGRVTMTRDTSTSTVYMELSSLRSEDTAVYYCARSYHISTTPNWFAYWGQGTLVTVSSASTKGPSVFPLAPSSKSTSGGTAALGCLVKDYFPEPVTVSWNSGALTSGVHTFPAVLQSSGLYSLSSVVTVPSSSLGTQTYICNVNHKPSNTKVDKKVEPKSCDKTHTCPPCPAPEAAGPSVFLFPPKPKDTLMISRTPEVTCVVVDVSHEDPEVKFNWYVDGVEVHNAKTKPREEQYNSTYRVVSVLTVLHQDWLNGKEYKCKVSNKALPAPIEKTISKAKGQPREPQVYTLPPSREEMTKNQVSLSCAVKGFYPSDIAVEWESNGQPENNYKTTPPVLDSDGSFFLVSKLTVDKSRWQQGNVFSCSVMHEALHNRFTQKSLSLSPGGGGGSGGGGSGGGGSGGGGSDIQMTQSPSSVSASVGDRVTITCRASQGIYSWLAWYQQKPGKAPNLLIYTASTLQSGVPSRFSGSGSGTDFTLTISSLQPEDFATYYCQQANIFPLTFGGGTKVEIK
chain 3: DIQMTQSPSSLSASVGDRVTITCKASQNVYKKLEWYQQKPGKVPKVLIYHTNILQTGVPSRFSGSGSGTDYTLTISSLQPEDVATYYCYQWNSGPTFGGGTKVEIKRTVAAPSVFIFPPSDEQLKSGTASVVCLLNNFYPREAKVQWKVDNALQSGNSQESVTEQDSKDSTYSLSSTLTLSKADYEKHKVYACEVTHQGLSSPVTKSFNRGEC
notes: PD-L1/CD40
In the case of B2, the binding result in assay [1] is on record as “binds”.

B3: Ly2802 (multi-specific antibody)
chain 1: QVQLQQSGAELVRPGSSVKISCKASGYAFSSYWMNWVKQRPGQGLEWIGQIWPGDGDTNYNGKFKGKATLTADESSSTAYMQLSSLASEDSAVYFCARRETTTVGRYYYAMDYWGQGTTVTVSSASVAAPSVFIFPPSDEQLKSGTASVVCLLNNFYPREAKVQWKVDNALQSGNSQESVTEQDSKDSTYSLSSTLTLSKADYEKHKVYACEVTHQGLSSPVTKSFNRGECGGGGSGGGGSGGGGSGGGGSEVQLVESGGGLVQPGGSLRLSCAASGFTFSTYAMNWVRQAPGKGLEWVGRIRSKYNNYATYYADSVKGRFTISRDDSKNSLYLQMNSLKTEDTAVYYCVRHGNFGNSYVSWFAYWGQGTLVTVSSGGGGSDKTHTCPPCPAPELLGPSVFLFPPKPKDTLMISRTPEVTCVVVDVSHEDPEVKFNWYVDGVEVHNAKTKPREEQYNSTYRVVSVLTVLHQDWLNGKEYKCKVSNKALGAPIEKTISKAKGQPREPQVYTLPPSREEMTKNQVSLWCLVKGFYPSDIAVEWESNGQPENNYKTTPPVLDSDGSFFLYSKLTVDKSRWQQGNVFSCSVMHEALHNHYTQKSLSLSPGKGGGGSGGGGSGGGGSGGGGSQVQLVQSGAEVKKPGASVKVSCKASGYTFAGFEMHWVRQAPGQGLEWMGAIDPKTGGTDYNQKFKDRVTMTRDTSISTAYMELSRLRSDDTAVYYCARDLGYFDVWGQGTLVTVSS
chain 2: QVQLQQPGAELVKPGASVKMSCKASGYTFTSYNMHWVKQTPGRGLEWIGAIYPGNGDTSYNQKFKGKATLTADKSSSTAYMQLSSLTSEDSAVYYCARSTYYGGDWYFNVWGAGTTVTVSAASTKGPSVFPLAPSSKSTSGGTAALGCLVKDYFPEPVTVSWNSGALTSGVHTFPAVLQSSGLYSLSSVVTVPSSSLGTQTYICNVNHKPSNTKVDKKVEPKSCGGGGSGGGGSGGGGSGGGGSQAVVTQEPSLTVSPGGTVTLTCRSSTGAVTTSNYANWVQQKPGQAPRGLIGGTNKRAPWTPARFSGSLLGGKAALTITGAQAEDEADYYCALWYSNLWVFGGGTKLTVLGGGGSDKTHTCPPCPAPELLGPSVFLFPPKPKDTLMISRTPEVTCVVVDVSHEDPEVKFNWYVDGVEVHNAKTKPREEQYNSTYRVVSVLTVLHQDWLNGKEYKCKVSNKALGAPIEKTISKAKGQPREPQVYTLPPSREEMTKNQVSLSCAVKGFYPSDIAVEWESNGQPENNYKTTPPVLDSDGSFFLVSKLTVDKSRWQQGNVFSCSVMHEALHNHYTQKSLSLSPGKGGGGSGGGGSGGGGSGGGGSDIQMTQSPSSLSASVGDRVTITCRASQDIRSNLNWYQQKPGGAVKLLIYYTSRLHSGVPSRFSGSGSGTDYTLTISSLQPEDFATYFCQQSEKLPRTFGGGTKVEIR
chain 3: DIQLTQSPASLAVSLGQRATISCKASQSVDYDGDSYLNWYQQIPGQPPKLLIYDASNLVSGIPPRFSGSGSGTDFTLNIHPVEKVDAATYHCQQSTEDPWTFGGGTKLEIKSSASTKGPSVFPLAPSSKSTSGGTAALGCLVKDYFPEPVTVSWNSGALTSGVHTFPAVLQSSGLYSLSSVVTVPSSSLGTQTYICNVNHKPSNTKVDKKVEPKSC
chain 4: QIVLSQSPAILSASPGEKVTMTCRASSSVSYIHWFQQKPGSSPKPWIYATSNLASGVPVRFSGSGSGTSYSLTISRVEAEDAATYYCQQWTSNPPTFGGGTKLEIKRTVAAPSVFIFPPSDEQLKSGTASVVCLLNNFYPREAKVQWKVDNALQSGNSQESVTEQDSKDSTYSLSSTLTLSKADYEKHKVYACEVTHQGLSSPVTKSFNRGEC
notes: CD19/CD20/CD3/CD137
Regarding B3, the binding result in assay [2] and in assay [3] was “binds” throughout.

B4: Ly2944 (multi-specific antibody)
chain 1: QVQLQQSGAELVRPGSSVKISCKASGYAFSSYWMNWVKQRPGQGLEWIGQIWPGDGDTNYNGKFKGKATLTADESSSTAYMQLSSLASEDSAVYFCARRETTTVGRYYYAMDYWGQGTTVTVSSASVAAPSVFIFPPSDEQLKSGTASVVCLLNNFYPREAKVQWKVDNALQSGNSQESVTEQDSKDSTYSLSSTLTLSKADYEKHKVYACEVTHQGLSSPVTKSFNRGECGGGGSGGGGSGGGGSGGGGSEVQLVESGGGLVQPGGSLRLSCAASGFTFSTYAMNWVRQAPGKGLEWVGRIRSKYNNYATYYADSVKGRFTISRDDSKNSLYLQMNSLKTEDTAVYYCVRHGNFGNSYVSWFAYWGQGTLVTVSSGGGGSDKTHTCPPCPAPELLGPSVFLFPPKPKDTLMISRTPEVTCVVVDVSHEDPEVKFNWYVDGVEVHNAKTKPREEQYNSTYRVVSVLTVLHQDWLNGKEYKCKVSNKALGAPIEKTISKAKGQPREPQVYTLPPSREEMTKNQVSLWCLVKGFYPSDIAVEWESNGQPENNYKTTPPVLDSDGSFFLYSKLTVDKSRWQQGNVFSCSVMHEALHNHYTQKSLSLSPGKGGGGSGGGGSGGGGSGGGGSQVQLVQSGAEVKKPGASVKVSCKASGYTFAGFEMHWVRQAPGQGLEWMGAIDPKTGGTDYNQKFKDRVTMTRDTSISTAYMELSRLRSDDTAVYYCARDLGYFDVWGQGTLVTVSS
chain 2: QVQLQQPGAELVKPGASVKMSCKASGYTFTSYNMHWVKQTPGRGLEWIGAIYPGNGDTSYNQKFKGKATLTADKSSSTAYMQLSSLTSEDSAVYYCARSTYYGGDWYFNVWGAGTTVTVSAASTKGPSVFPLAPSSKSTSGGTAALGCLVKDYFPEPVTVSWNSGALTSGVHTFPAVLQSSGLYSLSSVVTVPSSSLGTQTYICNVNHKPSNTKVDKKVEPKSCGGGGSGGGGSGGGGSGGGGSQAVVTQEPSLTVSPGGTVTLTCRSSTGAVTTSNYANWVQQKPGQAPRGLIGGTNKRAPWTPARFSGSLLGGKAALTITGAQAEDEADYYCALWYSNLWVFGGGTKLTVLGGGGSDKTHTCPPCPAPELLGPSVFLFPPKPKDTLMISRTPEVTCVVVDVSHEDPEVKFNWYVDGVEVHNAKTKPREEQYNSTYRVVSVLTVLHQDWLNGKEYKCKVSNKALGAPIEKTISKAKGQPREPQVYTLPPSREEMTKNQVSLSCAVKGFYPSDIAVEWESNGQPENNYKTTPPVLDSDGSFFLVSKLTVDKSRWQQGNVFSCSVMHEALHNRFTQKSLSLSPGKGGGGSGGGGSGGGGSGGGGSDIQMTQSPSSLSASVGDRVTITCRASQDIRSNLNWYQQKPGGAVKLLIYYTSRLHSGVPSRFSGSGSGTDYTLTISSLQPEDFATYFCQQSEKLPRTFGGGTKVEIR
chain 3: DIQLTQSPASLAVSLGQRATISCKASQSVDYDGDSYLNWYQQIPGQPPKLLIYDASNLVSGIPPRFSGSGSGTDFTLNIHPVEKVDAATYHCQQSTEDPWTFGGGTKLEIKSSASTKGPSVFPLAPSSKSTSGGTAALGCLVKDYFPEPVTVSWNSGALTSGVHTFPAVLQSSGLYSLSSVVTVPSSSLGTQTYICNVNHKPSNTKVDKKVEPKSC
chain 4: QIVLSQSPAILSASPGEKVTMTCRASSSVSYIHWFQQKPGSSPKPWIYATSNLASGVPVRFSGSGSGTSYSLTISRVEAEDAATYYCQQWTSNPPTFGGGTKLEIKRTVAAPSVFIFPPSDEQLKSGTASVVCLLNNFYPREAKVQWKVDNALQSGNSQESVTEQDSKDSTYSLSSTLTLSKADYEKHKVYACEVTHQGLSSPVTKSFNRGEC
notes: CD19/CD20/CD3/CD137
With B4, the binding result in assay [2] and in assay [3] was “binds” in each case.

Source of the values: patent EP4803150A2 (Lyvgen Biopharma Holdings Limited, dated 2026).
